Common to all, as to assay: flow cytometry on cells
Assay [1] has as its target autoinhibited-substrate-MDM2-polyArg (construct 1) (UniProt Q00987 25-125).
In assay [2] the target is MDM2-polyArg (construct 2) (UniProt Q00987 17-125).
Assay [3] concerns the target construct 1 cleaved at the Ala-Arg site by OmpT-AR1 (MDM2-polyArg part) (UniProt Q00987 25-125).

No end group written: not given here. *: point of attachment. BODIPY(FL) = CC1=CC(C)=[N+]2C1=Cc1ccc(CCC(=O)*)n1[B-]2(F)F

With {BODIPY(FL)}-GTSFAEYWNLLSP [PMI peptide conjugated to the fluorescent dye BODIPY], the “fold reduction in fluorescence against construct 2” value in assay [1] is more than 10 fold. Also, the binding result in assay [2] and in assay [3] was “binds” each time.

The values are drawn from paper PMC3354639 (Chembiochem, 2012).
